Laboratory results reported in patent US20250186594A1.

Tests used:
[1] = molecular target: IL-18 variant SEQ ID NO: 6 with 30 kDa PEG (E6K, V11I, C38A, K53A, T63A, C68A, C76A, C127A, D98C-30kPEG) (human) (UniProt Q14116); experiment: cell-based or functional assay
[2] = molecular target: IL-18 variant SEQ ID NO: 205 (V11I, C38A, K53A, T63A, C76A, C127A) (human) (UniProt Q14116); experiment: cell-based or functional assay
[3] = molecular target: IL-18 variant SEQ ID NO: 214 (V11I, D37A, C38A, K53A, C76A, C127A) (human) (UniProt Q14116); experiment: cell-based or functional assay
IL-18 variant SEQ ID NO: 214 (V11I, D37A, C38A, K53A, C76A, C127A) (human), sequence (Q14116 37-193 V47I/D73A/C74A/K89A/C112A/C163A): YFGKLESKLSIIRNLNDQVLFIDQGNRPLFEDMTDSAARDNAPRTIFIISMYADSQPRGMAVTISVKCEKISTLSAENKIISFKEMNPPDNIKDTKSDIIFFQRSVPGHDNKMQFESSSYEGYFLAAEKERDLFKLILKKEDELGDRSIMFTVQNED

[4] = molecular target: IL-18 variant SEQ ID NO: 5 (E6K, V11I, C38A, K53A, T63A, C68A, C76A, M86C, C127A) (human) (UniProt Q14116); experiment: cell-based or functional assay
IL-18 variant SEQ ID NO: 5 (E6K, V11I, C38A, K53A, T63A, C68A, C76A, M86C, C127A) (human), sequence (Q14116 other isoform, or with tags, fused parts or gaps with the stated changes): as the sequence (Q14116 37-193 V47I/D73A/C74A/K89A/C112A/C163A) above, with E6K, A37D, T63A, C68A, M86C counted along it

[5] = molecular target: IL-18 variant SEQ ID NO: 209 (F2A, V11I, C38A, K53A, C76A, C127A) (human) (UniProt Q14116); experiment: cell-based or functional assay
IL-18 variant SEQ ID NO: 209 (F2A, V11I, C38A, K53A, C76A, C127A) (human), sequence (Q14116 other isoform, or with tags, fused parts or gaps V11I C38A K53A C76A C127A V11I C38A K53A C76A C127A): as the sequence (Q14116 37-193 V47I/D73A/C74A/K89A/C112A/C163A) above, with F2A, A37D counted along it

[6] = molecular target: IL-18 variant SEQ ID NO: 62 (E6K, C38A, K53A, C127A) (human) (UniProt Q14116); experiment: cell-based or functional assay
IL-18 variant SEQ ID NO: 62 (E6K, C38A, K53A, C127A) (human), sequence (Q14116 other isoform, or with tags, fused parts or gaps C38A K53A C127A C38A K53A C127A): as the sequence (Q14116 37-193 V47I/D73A/C74A/K89A/C112A/C163A) above, with E6K, I11V, A37D, A76C counted along it

[7] = molecular target: IL-18 variant SEQ ID NO: 30 (E6K, V11I, C38A, K53A, T63A, C76A, C127A) (human) (UniProt Q14116); experiment: cell-based or functional assay
IL-18 variant SEQ ID NO: 30 (E6K, V11I, C38A, K53A, T63A, C76A, C127A) (human), sequence (Q14116 other isoform, or with tags, fused parts or gaps with the stated changes): as the sequence (Q14116 37-193 V47I/D73A/C74A/K89A/C112A/C163A) above, with E6K, A37D, T63A counted along it

[8] = molecular target: IL-18 variant SEQ ID NO: 226 (V11I, C38A, S55R, C76A, C127A) (human) (UniProt Q14116); experiment: cell-based or functional assay
IL-18 variant SEQ ID NO: 226 (V11I, C38A, S55R, C76A, C127A) (human), sequence (Q14116 37-193 V47I/C74A/S91R/C112A/C163A): as the sequence (Q14116 37-193 V47I/D73A/C74A/K89A/C112A/C163A) above, with A37D, A53K, S55R counted along it

[9] = molecular target: IL-18 variant SEQ ID NO: 30 with 20 kDa PEG (E6K, V11I, C38A, K53A, T63A, C76A, C127A, C68-20kPEG) (human) (UniProt Q14116); experiment: cell-based or functional assay
IL-18 variant SEQ ID NO: 30 with 20 kDa PEG (E6K, V11I, C38A, K53A, T63A, C76A, C127A, C68-20kPEG) (human), sequence (Q14116 other isoform, or with tags, fused parts or gaps with the stated changes): as the sequence (Q14116 37-193 V47I/D73A/C74A/K89A/C112A/C163A) above, with E6K, A37D, T63A counted along it

[10] = molecular target: IL-18 variant SEQ ID NO: 28 with 30 kDa PEG (E6K, C38A, K53A, T63A, C76A, C127A, C68-30kPEG) (human) (UniProt Q14116); experiment: cell-based or functional assay
IL-18 variant SEQ ID NO: 28 with 30 kDa PEG (E6K, C38A, K53A, T63A, C76A, C127A, C68-30kPEG) (human), sequence (Q14116 other isoform, or with tags, fused parts or gaps C38A K53A T63A C76A C127A C38A K53A T63A C76A C127A): as the sequence (Q14116 37-193 V47I/D73A/C74A/K89A/C112A/C163A) above, with E6K, I11V, A37D, T63A counted along it

[11] = molecular target: IL-18 variant SEQ ID NO: 206 (V11I, C38A, K53A, S55A, C76A, C127A) (human) (UniProt Q14116); experiment: cell-based or functional assay
IL-18 variant SEQ ID NO: 206 (V11I, C38A, K53A, S55A, C76A, C127A) (human), sequence (Q14116 37-193 V47I/C74A/K89A/S91A/C112A/C163A): as the sequence (Q14116 37-193 V47I/D73A/C74A/K89A/C112A/C163A) above, with A37D, S55A counted along it

[12] = molecular target: IL-18 variant SEQ ID NO: 11 (E6K, V11I, C38A, K53A, C76A, C127A) (human) (UniProt Q14116); experiment: cell-based or functional assay
IL-18 variant SEQ ID NO: 11 (E6K, V11I, C38A, K53A, C76A, C127A) (human), sequence (Q14116 other isoform, or with tags, fused parts or gaps V11I C38A K53A C76A C127A V11I C38A K53A C76A C127A): as the sequence (Q14116 37-193 V47I/D73A/C74A/K89A/C112A/C163A) above, with E6K, A37D counted along it

[13] = molecular target: IL-18 variant SEQ ID NO: 60 with 30 kDa PEG (E6K, C38Q, K53A, C68-30kPEG) (human) (UniProt Q14116); experiment: cell-based or functional assay
IL-18 variant SEQ ID NO: 60 with 30 kDa PEG (E6K, C38Q, K53A, C68-30kPEG) (human), sequence (Q14116 other isoform, or with tags, fused parts or gaps C38Q K53A C38Q K53A): as the sequence (Q14116 37-193 V47I/D73A/C74A/K89A/C112A/C163A) above, with E6K, I11V, A37D, A38Q, A76C, A127C counted along it

[14] = molecular target: IL-18 variant SEQ ID NO: 220 (V11I, C38A, K53A, C76A, H109A, C127A) (human) (UniProt Q14116); experiment: cell-based or functional assay
IL-18 variant SEQ ID NO: 220 (V11I, C38A, K53A, C76A, H109A, C127A) (human), sequence (Q14116 37-193 V47I/C74A/K89A/C112A/H145A/C163A): as the sequence (Q14116 37-193 V47I/D73A/C74A/K89A/C112A/C163A) above, with A37D, H109A counted along it

[15] = molecular target: IL-18 variant SEQ ID NO: 212 (V11I, D35A, C38A, K53A, C76A, C127A) (human) (UniProt Q14116); experiment: cell-based or functional assay
IL-18 variant SEQ ID NO: 212 (V11I, D35A, C38A, K53A, C76A, C127A) (human), sequence (Q14116 37-193 V47I/D71A/C74A/K89A/C112A/C163A): as the sequence (Q14116 37-193 V47I/D73A/C74A/K89A/C112A/C163A) above, with D35A, A37D counted along it

[16] = molecular target: IL-18 variant SEQ ID NO: 9 with 30 kDa PEG (E6K, C38A, K53A, C68A, D98C-30kPEG) (human) (UniProt Q14116); experiment: cell-based or functional assay
IL-18 variant SEQ ID NO: 9 with 30 kDa PEG (E6K, C38A, K53A, C68A, D98C-30kPEG) (human), sequence (Q14116 other isoform, or with tags, fused parts or gaps C38A K53A C68A D98C C38A K53A C68A D98C): as the sequence (Q14116 37-193 V47I/D73A/C74A/K89A/C112A/C163A) above, with E6K, I11V, A37D, C68A, A76C, D98C, A127C counted along it

[17] = molecular target: IL-18 variant SEQ ID NO: 225 (V11I, C38A, S55H, C76A, C127A) (human) (UniProt Q14116); experiment: cell-based or functional assay
IL-18 variant SEQ ID NO: 225 (V11I, C38A, S55H, C76A, C127A) (human), sequence (Q14116 37-193 V47I/C74A/S91H/C112A/C163A): as the sequence (Q14116 37-193 V47I/D73A/C74A/K89A/C112A/C163A) above, with A37D, A53K, S55H counted along it

[18] = molecular target: IL-18 variant SEQ ID NO: 215 (V11I, E31A, D37A, C38A, K53A, C76A, C127A) (human) (UniProt Q14116); experiment: cell-based or functional assay
IL-18 variant SEQ ID NO: 215 (V11I, E31A, D37A, C38A, K53A, C76A, C127A) (human), sequence (Q14116 37-193 V47I/E67A/D73A/C74A/K89A/C112A/C163A): as the sequence (Q14116 37-193 V47I/D73A/C74A/K89A/C112A/C163A) above, with E31A counted along it

[19] = molecular target: IL-18 variant SEQ ID NO: 61 (E6K, C38A, K53A, C76A) (human) (UniProt Q14116); experiment: cell-based or functional assay
IL-18 variant SEQ ID NO: 61 (E6K, C38A, K53A, C76A) (human), sequence (Q14116 other isoform, or with tags, fused parts or gaps C38A K53A C76A C38A K53A C76A): as the sequence (Q14116 37-193 V47I/D73A/C74A/K89A/C112A/C163A) above, with E6K, I11V, A37D, A127C counted along it

[20] = molecular target: IL-18 variant SEQ ID NO: 208 (V11I, C38A, K53A, D54A, C76A, C127A) (human) (UniProt Q14116); experiment: cell-based or functional assay
IL-18 variant SEQ ID NO: 208 (V11I, C38A, K53A, D54A, C76A, C127A) (human), sequence (Q14116 37-193 V47I/C74A/K89A/D90A/C112A/C163A): as the sequence (Q14116 37-193 V47I/D73A/C74A/K89A/C112A/C163A) above, with A37D, D54A counted along it

[21] = molecular target: IL-18 variant SEQ ID NO: 219 (V11I, C38A, K53A, C76A, G108A, C127A) (human) (UniProt Q14116); experiment: cell-based or functional assay
IL-18 variant SEQ ID NO: 219 (V11I, C38A, K53A, C76A, G108A, C127A) (human), sequence (Q14116 37-193 V47I/C74A/K89A/C112A/G144A/C163A): as the sequence (Q14116 37-193 V47I/D73A/C74A/K89A/C112A/C163A) above, with A37D, G108A counted along it

[22] = molecular target: IL-18 variant SEQ ID NO: 28 (E6K, C38A, K53A, T63A, C76A, C127A) (human) (UniProt Q14116); experiment: cell-based or functional assay
IL-18 variant SEQ ID NO: 28 (E6K, C38A, K53A, T63A, C76A, C127A) (human), sequence (Q14116 other isoform, or with tags, fused parts or gaps C38A K53A T63A C76A C127A C38A K53A T63A C76A C127A): as the sequence (Q14116 37-193 V47I/D73A/C74A/K89A/C112A/C163A) above, with E6K, I11V, A37D, T63A counted along it

[23] = molecular target: IL-18 variant SEQ ID NO: 30 with 10 kDa PEG (E6K, V11I, C38A, K53A, T63A, C76A, C127A, C68-10kPEG) (human) (UniProt Q14116); experiment: cell-based or functional assay
IL-18 variant SEQ ID NO: 30 with 10 kDa PEG (E6K, V11I, C38A, K53A, T63A, C76A, C127A, C68-10kPEG) (human), sequence (Q14116 other isoform, or with tags, fused parts or gaps with the stated changes): as the sequence (Q14116 37-193 V47I/D73A/C74A/K89A/C112A/C163A) above, with E6K, A37D, T63A counted along it

[24] = molecular target: IL-18 variant SEQ ID NO: 217 (V11I, C38A, N41A, K53A, C76A, C127A) (human) (UniProt Q14116); experiment: cell-based or functional assay
IL-18 variant SEQ ID NO: 217 (V11I, C38A, N41A, K53A, C76A, C127A) (human), sequence (Q14116 37-193 V47I/C74A/N77A/K89A/C112A/C163A): as the sequence (Q14116 37-193 V47I/D73A/C74A/K89A/C112A/C163A) above, with A37D, N41A counted along it

[25] = molecular target: IL-18 variant SEQ ID NO: 216 (V11I, C38A, D40A, K53A, C76A, C127A) (human) (UniProt Q14116); experiment: cell-based or functional assay
IL-18 variant SEQ ID NO: 216 (V11I, C38A, D40A, K53A, C76A, C127A) (human), sequence (Q14116 37-193 V47I/C74A/D76A/K89A/C112A/C163A): as the sequence (Q14116 37-193 V47I/D73A/C74A/K89A/C112A/C163A) above, with A37D, D40A counted along it

[26] = molecular target: IL-18 variant SEQ ID NO: 207 (V11I, C38A, M51G, K53A, C76A, C127A) (human) (UniProt Q14116); experiment: cell-based or functional assay
IL-18 variant SEQ ID NO: 207 (V11I, C38A, M51G, K53A, C76A, C127A) (human), sequence (Q14116 37-193 V47I/C74A/M87G/K89A/C112A/C163A): as the sequence (Q14116 37-193 V47I/D73A/C74A/K89A/C112A/C163A) above, with A37D, M51G counted along it

[27] = molecular target: IL-18 variant SEQ ID NO: 227 (V11I, C38A, S55T, C76A, C127A) (human) (UniProt Q14116); experiment: cell-based or functional assay
IL-18 variant SEQ ID NO: 227 (V11I, C38A, S55T, C76A, C127A) (human), sequence (Q14116 37-193 V47I/C74A/S91T/C112A/C163A): as the sequence (Q14116 37-193 V47I/D73A/C74A/K89A/C112A/C163A) above, with A37D, A53K, S55T counted along it

[28] = molecular target: Native IL-18 wild-type (SEQ ID NO: 1, native sequence) (human) (UniProt Q14116)
Native IL-18 wild-type (SEQ ID NO: 1, native sequence) (human), sequence (Q14116 37-193): as the sequence (Q14116 37-193 V47I/D73A/C74A/K89A/C112A/C163A) above, with I11V, A37D, A38C, A53K, A76C, A127C counted along it

[29] = molecular target: IL-18 variant SEQ ID NO: 57 (E6K, C38S, K53A) (human) (UniProt Q14116)
IL-18 variant SEQ ID NO: 57 (E6K, C38S, K53A) (human), sequence (Q14116 other isoform, or with tags, fused parts or gaps C38S K53A C38S K53A): as the sequence (Q14116 37-193 V47I/D73A/C74A/K89A/C112A/C163A) above, with E6K, I11V, A37D, A38S, A76C, A127C counted along it

IL-18 variant SEQ ID NO: 205 (V11I, C38A, K53A, T63A, C76A, C127A) (human), sequence (Q14116 37-193 V47I/C74A/K89A/T99A/C112A/C163A): as the sequence (Q14116 37-193 V47I/D73A/C74A/K89A/C112A/C163A) above, with A37D, T63A counted along it

“Fc fused human IL-18BP isoform a (IL-18BPa) (from UniProt O95998 31-194) (Fc fusion)” was tested, and the IC50 of IL-18BPa-Fc on IFNγ secretion, NK-92 [1] was 35.5 nM, the IC50 of IL-18BPa-Fc on IFNγ secretion, NK-92 [2] was 7.52 nM and the IC50 of IL-18BPa-Fc on IFNγ secretion, NK-92 [3] was 2.22 nM. For the same substance, the IC50 of IL-18BPa-Fc on IFNγ secretion, NK-92 [4] was 358 nM, the IC50 of IL-18BPa-Fc on IFNγ secretion, NK-92 [5] was 5.05 nM and the IC50 of IL-18BPa-Fc on IFNγ secretion, NK-92 [6] was 284 nM. It also gave an IC50 of IL-18BPa-Fc on IFNγ secretion, NK-92 [7] of 488 nM, an IC50 of IL-18BPa-Fc on IFNγ secretion, NK-92 [8] of 0.885 nM and an IC50 of IL-18BPa-Fc on IFNγ secretion, NK-92 [9] of 44.2 nM. For the same substance, the IC50 of IL-18BPa-Fc on IFNγ secretion, NK-92 [10] was 12.2 nM, the IC50 of IL-18BPa-Fc on IFNγ secretion, NK-92 [11] was 10.2 nM and the IC50 of IL-18BPa-Fc on IFNγ secretion, NK-92 [12] was 532 nM. The IC50 of IL-18BPa-Fc on IFNγ secretion, NK-92 [13] was 28.1 nM, the IC50 of IL-18BPa-Fc on IFNγ secretion, NK-92 [14] was 1.81 nM and the IC50 of IL-18BPa-Fc on IFNγ secretion, NK-92 [15] was 3.62 nM. It also gave an IC50 of IL-18BPa-Fc on IFNγ secretion, NK-92 [16] of 143 nM, an IC50 of IL-18BPa-Fc on IFNγ secretion, NK-92 [17] of 0.456 nM and an IC50 of IL-18BPa-Fc on IFNγ secretion, NK-92 [18] of 3.71 nM. It also gave an IC50 of IL-18BPa-Fc on IFNγ secretion, NK-92 [19] of 779 nM, an IC50 of IL-18BPa-Fc on IFNγ secretion, NK-92 [20] of 47.6 nM and an IC50 of IL-18BPa-Fc on IFNγ secretion, NK-92 [21] of 3.98 nM. The IC50 of IL-18BPa-Fc on IFNγ secretion, NK-92 [22] was 233 nM, the IC50 of IL-18BPa-Fc on IFNγ secretion, NK-92 [23] was 67.1 nM and the IC50 of IL-18BPa-Fc on IFNγ secretion, NK-92 [24] was 0.681 nM. The IC50 of IL-18BPa-Fc on IFNγ secretion, NK-92 [25] was 3.23 nM, the IC50 of IL-18BPa-Fc on IFNγ secretion, NK-92 [26] was 733 nM and the IC50 of IL-18BPa-Fc on IFNγ secretion, NK-92 [27] was 0.44 nM. The IC50 (read off the curve); IFNγ secretion by NK-92 cells (IFNg AlphaLISA signal, 615 nM) [28] was 0.9 nM and the IC50 (read off the curve); IFNγ secretion by NK-92 cells (IFNg AlphaLISA signal, 615 nM) [29] was 200 nM.
